Test results: US20200181223A1
Values belong to the substance of their own block, whether it stands above or below them.

Tests used:
[1] = target: human insulin receptor isoform B (IR-B) (human) (UniProt P06213)
[2] = target: Glu(A14)Des(B30)-Insulin (human)
[3] = target: Glu(A14)Ile(B25)Des(B30)-Insulin (human)
[4] = target: Glu(A14)Val(B16)Des(B30)-Insulin (human)
[5] = target: Glu(A14)Val(B16)Val(B25)Des(B30)-Insulin (human)
[6] = target: Glu(A14)Val(B25)Des(B30)-Insulin (human)
[7] = target: Human Insulin (wild-type) (human)
[8] = target: Val(B25)Des(B30)-Insulin (human)
[9] = target: human insulin receptor isoform B (IR-B) (human) (UniProt P06213); assay: SPA competition with [125I]-labelled human insulin, plasma membranes of CHO cells overexpressing the IR; 0 means below the detection limit
[10] = target: human insulin receptor isoform B (IR-B) (human) (UniProt P06213); assay: SPA competition with [125I]-labelled human insulin, plasma membranes of CHO cells overexpressing the IR
[11] = target: human insulin receptor isoform B (IR-B) (human) (UniProt P06213); assay: SPA competition with [125I]-labelled human insulin, plasma membranes of CHO cells overexpressing the IR; category B (<20%) as defined in paragraph 522
[12] = target: Glu(A14)Gly(A21)Trp(B25)Des(B30)-Insulin (human)
[13] = target: Glu(A14)His(B16)Des(B30)-Insulin (human)
[14] = target: Gly(A21)Trp(B16)His(B25)Des(B30)-Insulin (human)
[15] = target: Leu(B25)Des(B30)-Insulin (human)
Leu(B25)Des(B30)-Insulin (human), sequence (chain, as listed by the source, chain 1 of 2): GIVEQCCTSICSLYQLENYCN
Leu(B25)Des(B30)-Insulin (human), sequence (chain, as listed by the source, chain 2 of 2): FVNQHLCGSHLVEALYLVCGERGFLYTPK

purified pepsin (from porcine stomach mucosa) in simulated gastric fluid, sequence (P00791 60-385): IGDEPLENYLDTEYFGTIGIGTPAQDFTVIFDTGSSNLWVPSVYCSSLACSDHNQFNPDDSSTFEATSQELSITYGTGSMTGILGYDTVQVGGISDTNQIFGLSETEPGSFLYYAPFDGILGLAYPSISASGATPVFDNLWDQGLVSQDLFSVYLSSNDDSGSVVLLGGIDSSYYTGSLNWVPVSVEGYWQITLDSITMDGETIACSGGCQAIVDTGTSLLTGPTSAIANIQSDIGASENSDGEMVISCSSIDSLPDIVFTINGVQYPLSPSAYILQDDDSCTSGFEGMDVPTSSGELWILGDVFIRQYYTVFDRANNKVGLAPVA
Gly(A21)Trp(B16)His(B25)Des(B30)-Insulin (ligand), sequence (chain): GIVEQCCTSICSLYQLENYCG
Gly(A21)Trp(B16)His(B25)Des(B30)-Insulin (ligand), sequence (chain): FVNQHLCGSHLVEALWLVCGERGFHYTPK
Gly(A21)Trp(B16)Trp(B25)Des(B30)-Insulin (ligand), sequence (chain): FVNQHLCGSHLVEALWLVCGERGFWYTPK
Gly(A21)Trp(B16)Des(B30)-Insulin (ligand), sequence (chain): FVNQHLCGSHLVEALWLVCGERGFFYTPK
Glu(A14)His(B16)His(B25)Des(B30)-Insulin (ligand), sequence (chain): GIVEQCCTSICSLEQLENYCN
Glu(A14)His(B16)His(B25)Des(B30)-Insulin (ligand), sequence (chain): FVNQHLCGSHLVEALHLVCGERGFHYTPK
Glu(A14)Leu(B16)Ala(B25)Des(B30)-Insulin (ligand), sequence (chain): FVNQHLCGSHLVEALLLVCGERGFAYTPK
Glu(A14)Glu(B3)Ile(B16)Ile(B25)Des(B30)-Insulin (ligand), sequence (chain): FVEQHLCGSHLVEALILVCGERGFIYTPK
Glu(A14)Val(B16)Ile(B25)Des(B30)-Insulin (ligand), sequence (chain): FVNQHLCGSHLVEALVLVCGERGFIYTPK
Glu(A14)Glu(B16)His(B25)Des(B30)-Insulin (ligand), sequence (chain): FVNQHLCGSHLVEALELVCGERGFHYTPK
Glu(A14)Glu(B3)Val(B16)Val(B25)Des(B30)-Insulin (ligand), sequence (chain): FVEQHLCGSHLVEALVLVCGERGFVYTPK
Glu(A14)Ile(B16)Val(B25)Des(B30)-Insulin (ligand), sequence (chain): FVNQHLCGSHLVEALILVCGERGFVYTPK
Glu(A14)Ile(B16)Des(B30)-Insulin (ligand), sequence (chain): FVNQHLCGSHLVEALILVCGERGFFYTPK
Glu(A14)Glu(B3)Val(B16)Des(B30)-Insulin (ligand), sequence (chain): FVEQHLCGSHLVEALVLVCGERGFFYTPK
Glu(A14)His(B16)Des(B30)-Insulin (ligand), sequence (chain): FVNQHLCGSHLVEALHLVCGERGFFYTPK
Glu(A14)Val(B16)Val(B25)Des(B30)-Insulin (ligand), sequence (chain): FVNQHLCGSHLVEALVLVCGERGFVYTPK
Glu(A14)Gly(A21)Glu(B3)Ile(B16)Trp(B25)Des(B30)-Insulin (ligand), sequence (chain): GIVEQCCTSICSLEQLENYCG
Glu(A14)Gly(A21)Glu(B3)Ile(B16)Trp(B25)Des(B30)-Insulin (ligand), sequence (chain): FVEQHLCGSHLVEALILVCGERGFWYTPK
Glu(A14)Gly(A21)Glu(B3)Val(B16)Trp(B25)Des(B30)-Insulin (ligand), sequence (chain): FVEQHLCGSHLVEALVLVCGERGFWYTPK
Glu(A14)Gly(A21)Glu(B3)Ile(B16)Val(B25)Des(B30)-Insulin (ligand), sequence (chain): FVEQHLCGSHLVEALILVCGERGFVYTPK
Glu(A14)Gly(A21)Glu(B3)Val(B25)Des(B30)-Insulin (ligand), sequence (chain): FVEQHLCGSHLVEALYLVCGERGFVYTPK
Glu(A14)Gly(A21)Val(B16)Trp(B25)Des(B30)-Insulin (ligand), sequence (chain): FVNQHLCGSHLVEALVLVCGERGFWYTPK
Val(B16)Des(B30)-Insulin (ligand), sequence (chain): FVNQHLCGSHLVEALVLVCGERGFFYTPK
Ala(B25)Des(B30)-Insulin (ligand), sequence (chain): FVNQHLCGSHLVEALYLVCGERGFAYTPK
Glu(A14)His(B16)Ala(B25)Des(B30)-Insulin (ligand), sequence (chain): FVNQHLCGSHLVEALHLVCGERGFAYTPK
Glu(A14)Gly(A21)Trp(B25)Des(B30)-Insulin (human), sequence (chain, as listed by the source, chain 2 of 2): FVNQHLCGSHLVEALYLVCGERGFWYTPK

autophosphorylation activity relative to human insulin (relative to human insulin) [1]: 0.17
Substance: Ala(B25)Des(B30)-Insulin (ligand)

percent remaining insulin analog after 30 minutes with Cathepsin D (Ala(B25)-Insulin (human)): 52%
percent remaining insulin analog after 30 minutes with Cathepsin D [2]: 0%
percent remaining insulin analog after 30 minutes with Cathepsin D [3]: 20%
percent remaining insulin analog after 30 minutes with Cathepsin D [4]: 0%
percent remaining insulin analog after 30 minutes with Cathepsin D [5]: 62%
percent remaining insulin analog after 30 minutes with Cathepsin D [6]: 59%
percent remaining insulin after 30 minutes with Cathepsin D [7]: 0%
percent remaining insulin analog after 30 minutes with Cathepsin D [8]: 43%
Substance: Cathepsin D (enzyme)

autophosphorylation activity relative to human insulin (relative to human insulin) [1]: 0.01
Insulin-receptor binding affinity relative to human insulin (relative to human insulin) [9]: 0
Substance: Glu(A14)Glu(B3)Ile(B16)Ile(B25)Des(B30)-Insulin (ligand)

autophosphorylation activity relative to human insulin (relative to human insulin) [1]: 0.28
Insulin-receptor binding affinity relative to human insulin (relative to human insulin) [10]: 0.4
Substance: Glu(A14)Glu(B3)Val(B16)Des(B30)-Insulin (ligand)

autophosphorylation activity relative to human insulin (relative to human insulin) [1]: 0.02
Insulin-receptor binding affinity relative to human insulin (relative to human insulin) [9]: 0
Substance: Glu(A14)Glu(B3)Val(B16)Val(B25)Des(B30)-Insulin (ligand)

autophosphorylation activity relative to human insulin (relative to human insulin) [1]: 0.07
Insulin-receptor binding affinity relative to human insulin (relative to human insulin) [10]: 0.01
Substance: Glu(A14)Glu(B16)His(B25)Des(B30)-Insulin (ligand)

autophosphorylation activity relative to human insulin (relative to human insulin) [1]: 0.13
Insulin-receptor binding affinity relative to human insulin (relative to human insulin) [10]: 0.12
Substance: Glu(A14)Gly(A21)Glu(B3)Ile(B16)Trp(B25)Des(B30)-Insulin (ligand)

autophosphorylation activity relative to human insulin (relative to human insulin) [1]: 0.02
Insulin-receptor binding affinity relative to human insulin (relative to human insulin) [10]: 0.01
Substance: Glu(A14)Gly(A21)Glu(B3)Ile(B16)Val(B25)Des(B30)-Insulin (ligand)

autophosphorylation activity relative to human insulin (relative to human insulin) [1]: 0.19
Insulin-receptor binding affinity relative to human insulin (relative to human insulin) [10]: 0.21
Substance: Glu(A14)Gly(A21)Glu(B3)Val(B16)Trp(B25)Des(B30)-Insulin (ligand)

autophosphorylation activity relative to human insulin (relative to human insulin) [1]: 0.01
Insulin-receptor binding affinity relative to human insulin (relative to human insulin) [10]: 0.01
Substance: Glu(A14)Gly(A21)Glu(B3)Val(B16)Val(B25)Des(B30)-Insulin (ligand)

autophosphorylation activity relative to human insulin (relative to human insulin) [1]: 0.03
Insulin-receptor binding affinity relative to human insulin (relative to human insulin) [10]: 0.02
Substance: Glu(A14)Gly(A21)Glu(B3)Val(B25)Des(B30)-Insulin (ligand)

autophosphorylation activity relative to human insulin (relative to human insulin) [1]: 0.38
Insulin-receptor binding affinity relative to human insulin (relative to human insulin) [10]: 0.63
Substance: Glu(A14)Gly(A21)Trp(B16)Des(B30)-Insulin (ligand)

autophosphorylation activity relative to human insulin (relative to human insulin) [1]: 0.23
Insulin-receptor binding affinity relative to human insulin (relative to human insulin) [10]: 0.17
Substance: Glu(A14)Gly(A21)Val(B16)Trp(B25)Des(B30)-Insulin (ligand)

autophosphorylation activity relative to human insulin (relative to human insulin) [1]: 0.11
Substance: Glu(A14)His(B16)Ala(B25)Des(B30)-Insulin (ligand)

autophosphorylation activity relative to human insulin (relative to human insulin) [1]: 0.29
Insulin-receptor binding affinity relative to human insulin (relative to human insulin) [10]: 0.36
Substance: Glu(A14)His(B16)Des(B30)-Insulin (ligand)

autophosphorylation activity relative to human insulin (relative to human insulin) [1]: 0.11
Insulin-receptor binding affinity relative to human insulin (relative to human insulin) [10]: 0.12
Substance: Glu(A14)His(B16)His(B25)Des(B30)-Insulin (ligand)

Insulin receptor B binding affinity relative to human insulin [11]: < 20%
Substance: Glu(A14)His(B16)His(B25)[16-[4-[[5-[2-[2-[2-[2-[2-(carboxymethyloxy)ethoxy]ethylamino]-2-oxoethoxy]ethoxy]-ethylcarbamoyl]pyrimidin-2-yl]sulfamoyl]phenoxy]hexadecanoic acid]Lys(B29)Des(B30)-insulin (ligand)

autophosphorylation activity relative to human insulin (relative to human insulin) [1]: 0.18
Insulin-receptor binding affinity relative to human insulin (relative to human insulin) [10]: 0.23
Substance: Glu(A14)Ile(B16)Des(B30)-Insulin (ligand)

autophosphorylation activity relative to human insulin (relative to human insulin) [1]: 0.04
Insulin-receptor binding affinity relative to human insulin (relative to human insulin) [9]: 0
Substance: Glu(A14)Ile(B16)Val(B25)Des(B30)-Insulin (ligand)

autophosphorylation activity relative to human insulin (relative to human insulin) [1]: 0.04
Insulin-receptor binding affinity relative to human insulin (relative to human insulin) [10]: 0.01
Substance: Glu(A14)Leu(B16)Ala(B25)Des(B30)-Insulin (ligand)

autophosphorylation activity relative to human insulin (relative to human insulin) [1]: 0.32
Substance: Glu(A14)Val(B16)Des(B30)-Insulin (ligand)

autophosphorylation activity relative to human insulin (relative to human insulin) [1]: 0.01
Insulin-receptor binding affinity relative to human insulin (relative to human insulin) [9]: 0
Substance: Glu(A14)Val(B16)Ile(B25)Des(B30)-Insulin (ligand)

autophosphorylation activity relative to human insulin (relative to human insulin) [1]: 0.03
Insulin-receptor binding affinity relative to human insulin (relative to human insulin) [9]: 0
Substance: Glu(A14)Val(B16)Val(B25)Des(B30)-Insulin (ligand)

autophosphorylation activity relative to human insulin (relative to human insulin) [1]: 0.4
Insulin-receptor binding affinity relative to human insulin (relative to human insulin) [10]: 0.57
Substance: Gly(A21)Trp(B16)Des(B30)-Insulin (ligand)

autophosphorylation activity relative to human insulin (relative to human insulin) [1]: 0.35
Insulin-receptor binding affinity relative to human insulin (relative to human insulin) [10]: 0.4
Substance: Gly(A21)Trp(B16)His(B25)Des(B30)-Insulin (ligand)

autophosphorylation activity relative to human insulin (relative to human insulin) [1]: 0.38
Insulin-receptor binding affinity relative to human insulin (relative to human insulin) [10]: 0.43
Substance: Gly(A21)Trp(B16)Trp(B25)Des(B30)-Insulin (ligand)

Insulin receptor B binding affinity relative to human insulin [11]: < 20%
Substance: Insulin analog 41 (Glu(A14)His(B16)His(B25)Des(B30)-insulin) (ligand)

autophosphorylation activity relative to human insulin (relative to human insulin) [1]: 0.32
Substance: Val(B16)Des(B30)-Insulin (ligand)

percent remaining insulin analog after 30 minutes with insulin degrading enzyme, IDE (Ala(B25)-Insulin (human)): 2%
percent remaining insulin analog after 30 minutes with insulin degrading enzyme, IDE [2]: 81%
percent remaining insulin analog after 30 minutes with insulin degrading enzyme, IDE [12]: 80%
percent remaining insulin analog after 30 minutes with insulin degrading enzyme, IDE [13]: 88%
percent remaining insulin analog after 30 minutes with insulin degrading enzyme, IDE [3]: 77%
percent remaining insulin analog after 30 minutes with insulin degrading enzyme, IDE [4]: 98%
percent remaining insulin analog after 30 minutes with insulin degrading enzyme, IDE [5]: 86%
percent remaining insulin analog after 30 minutes with insulin degrading enzyme, IDE [6]: 86%
percent remaining insulin analog after 30 minutes with insulin degrading enzyme, IDE [14]: 41%
percent remaining insulin after 30 minutes with insulin degrading enzyme, IDE [7]: 38%
percent remaining insulin analog after 30 minutes with insulin degrading enzyme, IDE [15]: 12%
percent remaining insulin analog after 30 minutes with insulin degrading enzyme, IDE [8]: 11%
Substance: insulin degrading enzyme (IDE)

percent remaining insulin analog after 30 minutes in gastric fluid (Ala(B25)-Insulin (human)): 30%
percent remaining insulin analog after 30 minutes in gastric fluid [2]: 0%
percent remaining insulin analog after 30 minutes in gastric fluid [3]: 52%
percent remaining insulin analog after 30 minutes in gastric fluid [4]: 0%
percent remaining insulin analog after 30 minutes in gastric fluid [5]: 36%
percent remaining insulin analog after 30 minutes in gastric fluid [6]: 52%
percent remaining insulin after 30 minutes in gastric fluid [7]: 0%
percent remaining insulin analog after 30 minutes in gastric fluid [8]: 44%
Substance: purified pepsin (from porcine stomach mucosa) in simulated gastric fluid (from UniProt P00791) (enzyme)

percent remaining insulin analog after 120 minutes with α-Chymotrypsin (Ala(B25)-Insulin (human)): 58%
percent remaining insulin analog after 120 minutes with α-Chymotrypsin [2]: 35%
percent remaining insulin analog after 120 minutes with α-Chymotrypsin [3]: 99%
percent remaining insulin analog after 120 minutes with α-Chymotrypsin [4]: 30%
percent remaining insulin analog after 120 minutes with α-Chymotrypsin [5]: 34%
percent remaining insulin analog after 120 minutes with α-Chymotrypsin [6]: 40%
percent remaining insulin after 120 minutes with α-Chymotrypsin [7]: 5%
percent remaining insulin analog after 120 minutes with α-Chymotrypsin [8]: 31%
Substance: α-Chymotrypsin (enzyme)
